For 167 variants, self-cleavage results are on record in the RNAGym collection of RNA variant scans (doi:10.1093/nar/gkz1192).

The labels stand for the following.
B1: CPEB3 Ribozyme (parent)
chain: UAACAGGGGGCCACAGCAGAAGCGUUCACGUCGCAGCCCCUGUCAGAUUCUGGUGAAUCUGCGAAUUCUGCUGUAUAUCUC

Variants of B1 are the subject of this data set. Put plainly: self-cleavage, relative activity (ratio to wild type); higher = more cleavage; in vitro, sequencing. The method, boiled down: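 For each CPEB3 ribozyme variant, relative activity is its cleaved/total read fraction divided by the unmutated ribozyme's. Barcoded error-prone PCR libraries were transcribed by T7 RNA polymerase (5 hours, 37°C) and held in DNase I for 15 min before an EDTA stop, with cleavage occurring throughout. Template-switching reverse transcription and Illumina sequencing were used to read the RNAs. A 5-read minimum applied, and results are the mean of three batches.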
For the variant A20U U54A, the self-cleavage turned out to be 0.29.

As for A20U U54G, the self-cleavage was 0.26.

A20U U54C: the self-cleavage is 0.31.

For the variant A20U G53A, the self-cleavage is 0.28.

As for A20G C50G, the self-cleavage amounted to 0.57.

With A20G C50A, the self-cleavage turned out to be 0.89.

As for A20G C50U, the self-cleavage is 0.99.

In the case of A21C U43C, the self-cleavage was found to be 0.19.

With A21C U43A, the self-cleavage turned out to be 0.35.

Take A21C G53U: the self-cleavage was 0.15.

For the variant A21C U80A, the self-cleavage amounted to 0.18.

In the case of A21C U80C, the self-cleavage was found to be 0.1.

As to A20U U74C, the self-cleavage turned out to be 0.33.

On to A20U U74G, for which the self-cleavage worked out at 0.55.

Regarding A20U U74A, the self-cleavage turned out to be 0.54.

Regarding A20G G70A, the self-cleavage came to 0.33.

As for A20G G70C, the self-cleavage is 0.19.

With A20G G63U, the self-cleavage stood at 0.83.

In the case of A20G G63C, the self-cleavage turned out to be 0.63.

On to A20G G63A, for which the self-cleavage worked out at 0.63.

Regarding A20U U43A, the self-cleavage was found to be 0.45.

For A20U U43C, the self-cleavage came to 0.29.

Turning to A20U C29U, the self-cleavage was 0.15.

A20U C38A: the self-cleavage was 0.1.

For the variant A20U C38U, the self-cleavage is 0.42.

Consider A20G C37A, for which the self-cleavage amounted to 0.41.

For A20G C37U, the self-cleavage was 0.62.

A20G C37G: the self-cleavage stood at 0.78.

On to A21C U41C, for which the self-cleavage was 0.13.

For A20U G30U, the self-cleavage was found to be 0.24.

Turning to A21C A47G, the self-cleavage was found to be 0.3.

For A20U C71A, the self-cleavage stood at 0.17.

For the variant A21C U49G, the self-cleavage was determined as 0.11.

In the case of A20U G70A, the self-cleavage turned out to be 0.17.

For A20U G70U, the self-cleavage is 0.15.

A20G G73A: the self-cleavage turned out to be 1.22.

Turning to A20G G73U, the self-cleavage was 1.19.

Turning to A20U A47G, the self-cleavage amounted to 0.33.

Turning to A20G U43A, the self-cleavage worked out at 1.05.

As for A20G U43G, the self-cleavage is 0.44.

Regarding A20G U43C, the self-cleavage came out at 0.4.

Turning to A20U G33C, the self-cleavage was 0.15.

Consider A20U U41G, for which the self-cleavage came to 0.23.

On to A20U U41A, for which the self-cleavage came out at 0.3.

Turning to A20U U41C, the self-cleavage is 0.28.

As for A21C U69A, the self-cleavage is 0.17.

Turning to A21C U69C, the self-cleavage is 0.2.

With A20U C50A, the self-cleavage stood at 0.21.

In the case of A20G C44U, the self-cleavage worked out at 0.21.

For the variant A20G C44A, the self-cleavage amounted to 0.32.

Regarding A20U G22U, the self-cleavage was found to be 0.1.

Take A20U G22A: the self-cleavage was 0.2.

Turning to A20U A57G, the self-cleavage worked out at 0.23.

With A20U A57U, the self-cleavage was 0.58.

Regarding A20U C37U, the self-cleavage turned out to be 0.21.

Regarding A20G U31C, the self-cleavage is 0.56.

As for A20G U31G, the self-cleavage is 0.58.

On to A20G U31A, for which the self-cleavage is 0.37.

Regarding A20G U51A, the self-cleavage amounted to 0.8.

A20G U51C: the self-cleavage amounted to 0.85.

On to A20G U51G, for which the self-cleavage is 0.82.

On to A20U A64U, for which the self-cleavage was 0.26.

With A20U A64G, the self-cleavage was 0.35.

For A20G U49C, the self-cleavage was determined as 0.31.

A20G U49G: the self-cleavage was found to be 0.28.

Turning to A20G U49A, the self-cleavage amounted to 0.34.

For A21C A35G, the self-cleavage worked out at 0.39.

In the case of A20U G46A, the self-cleavage stood at 0.07.

For A20U G46U, the self-cleavage turned out to be 0.18.

On to A20U U72C, for which the self-cleavage was 0.34.

Regarding A20U U72G, the self-cleavage is 0.13.

For the variant A20U U72A, the self-cleavage was determined as 0.25.

Take A20G A65G: the self-cleavage was 0.32.

With A20G A65C, the self-cleavage stood at 0.13.

On to A20G A65U, for which the self-cleavage was 0.29.

Regarding A20G U69C, the self-cleavage is 0.5.

As to A20G U69A, the self-cleavage was 0.34.

A20G U69G: the self-cleavage is 0.42.

Turning to A21C U51C, the self-cleavage was 0.19.

For A21C U51A, the self-cleavage was 0.15.

In the case of A21C U60C, the self-cleavage worked out at 0.07.

Regarding A21C U60A, the self-cleavage amounted to 0.36.

With A21C U60G, the self-cleavage amounted to 0.15.

Regarding A20U A77G, the self-cleavage was 0.39.

Consider A20U A77C, for which the self-cleavage was determined as 0.25.

Take A20U A77U: the self-cleavage was determined as 0.28.

A21C U48C: the self-cleavage was determined as 0.19.

On to A20G C34A, for which the self-cleavage turned out to be 0.11.

As for A20G C27A, the self-cleavage is 0.16.

A20G C27U: the self-cleavage was 0.47.

Consider A21C U54A, for which the self-cleavage worked out at 0.17.

As to A21C U54C, the self-cleavage turned out to be 0.23.

As to A20U C68U, the self-cleavage came out at 0.28.

Turning to A21G, the self-cleavage is 0.64.

Turning to A21C, the self-cleavage worked out at 0.24.

A20G G42U: the self-cleavage amounted to 0.22.

In the case of A20G G42A, the self-cleavage stood at 0.53.

For A20U, the self-cleavage was determined as 0.33.

In the case of A20U C23A, the self-cleavage was 0.22.

Regarding A20U C23U, the self-cleavage was 0.4.

Take A20U C23G: the self-cleavage was determined as 0.3.

A21C U26A: the self-cleavage was 0.23.

Consider A21C U67C, for which the self-cleavage stood at 0.1.

As to A20G A56G, the self-cleavage was determined as 0.66.

Turning to A20G A56U, the self-cleavage is 0.47.

Take A21G A35U: the self-cleavage came to 0.27.

Regarding A21G A35G, the self-cleavage was 1.16.

With A21G A35C, the self-cleavage worked out at 0.13.

A20G A21G: the self-cleavage stood at 0.37.

Regarding A20G A21U, the self-cleavage came out at 0.26.

For A20G C71U, the self-cleavage is 0.56.

Turning to A20G C71A, the self-cleavage was 0.15.

Consider A20G C71G, for which the self-cleavage came out at 0.14.

Turning to A20G U41A, the self-cleavage came out at 0.28.

On to A20G U41G, for which the self-cleavage stood at 0.35.

A20G U41C: the self-cleavage came out at 0.89.

Consider A21C A65G, for which the self-cleavage came out at 0.34.

Turning to A20G U60A, the self-cleavage worked out at 0.35.

Regarding A20G U60C, the self-cleavage amounted to 0.34.

With A21C G46A, the self-cleavage stood at 0.37.

Regarding A21C U74C, the self-cleavage turned out to be 0.08.

Regarding A21C A64U, the self-cleavage was 0.07.

In the case of A21C A64C, the self-cleavage is 0.17.

Turning to A21C C71G, the self-cleavage was 0.11.

For the variant A21C C71A, the self-cleavage worked out at 0.09.

Consider A20G U74C, for which the self-cleavage stood at 1.17.

For A20G U74A, the self-cleavage came to 1.19.

With A20G U74G, the self-cleavage turned out to be 1.17.

On to A20U C79G, for which the self-cleavage is 0.37.

With A20U G42A, the self-cleavage came to 0.64.

Turning to A20U G42U, the self-cleavage was 0.13.

Consider A20U U51A, for which the self-cleavage stood at 0.25.

In the case of A20U U51C, the self-cleavage amounted to 0.32.

As for A20G U78C, the self-cleavage came out at 0.85.

Take A20G U78A: the self-cleavage is 0.79.

Turning to A20U U25A, the self-cleavage stood at 0.26.

Regarding A20U U25G, the self-cleavage turned out to be 0.15.

As for A20U U25C, the self-cleavage stood at 0.31.

Regarding A20U A45G, the self-cleavage came out at 0.28.

For A20U A45C, the self-cleavage came out at 0.12.

Regarding A20U A45U, the self-cleavage came out at 0.14.

In the case of A21C U72A, the self-cleavage is 0.19.

Consider A20G C39A, for which the self-cleavage was determined as 0.37.

A20G C39U: the self-cleavage worked out at 0.63.

For A20G C23U, the self-cleavage amounted to 0.38.

As for A21G A45C, the self-cleavage came out at 0.25.

Consider A21G A45U, for which the self-cleavage was found to be 0.32.

In the case of A21G A45G, the self-cleavage was 0.44.

As for A20U G24A, the self-cleavage turned out to be 0.09.

As to A20U G24U, the self-cleavage was 0.08.

For A20U G24C, the self-cleavage was 0.4.

Regarding A20U U76A, the self-cleavage was found to be 0.25.

Consider A20U U76C, for which the self-cleavage came out at 0.36.

Regarding A20G G61U, the self-cleavage turned out to be 0.39.

Take A20U A65C: the self-cleavage came to 0.1.

Take A20U A65G: the self-cleavage turned out to be 0.2.

On to A20U A56U, for which the self-cleavage came to 0.25.

Take A20U A56G: the self-cleavage stood at 0.25.

For the variant A20U A56C, the self-cleavage worked out at 0.54.

For A20U C27U, the self-cleavage was determined as 0.18.

On to A20U C27G, for which the self-cleavage was found to be 0.19.

Consider A20U C27A, for which the self-cleavage came out at 0.27.

In the case of A20G G53U, the self-cleavage was determined as 0.69.

Consider A20G G53A, for which the self-cleavage is 0.98.

With A20U C62U, the self-cleavage is 0.15.

As for A21G A47U, the self-cleavage worked out at 0.36.

In the case of A21G A47G, the self-cleavage worked out at 0.42.
